Laboratory results reported in paper PMC12139977.

Tests used:
[1] = biological target: Syntaxin-1A (rat (endogenous in INS1 (832/13))) (UniProt P32851); test: co-IP
[2] = biological target: Syntaxin-1A (rat (endogenous in INS1 (832/13))) (UniProt P32851); test: proximity ligation

Chain of UniProt P32851 (P32851 whole entry): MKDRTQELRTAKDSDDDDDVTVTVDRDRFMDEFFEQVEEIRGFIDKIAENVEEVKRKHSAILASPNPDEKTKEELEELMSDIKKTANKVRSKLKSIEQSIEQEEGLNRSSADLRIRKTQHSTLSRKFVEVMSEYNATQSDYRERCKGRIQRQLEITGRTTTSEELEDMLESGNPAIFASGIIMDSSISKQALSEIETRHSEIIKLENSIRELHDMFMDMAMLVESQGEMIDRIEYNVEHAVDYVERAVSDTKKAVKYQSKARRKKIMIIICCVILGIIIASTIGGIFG

In the case of “stabilized V5-tagged Tomosyn-2 (natural protein)”, the fold increase of Tomosyn-2 bound to Stx1A against control cells [1] is reported as 3 fold.

For Tomosyn-2 (natural protein), the fold increase of PLA signal over the control [2] was 8 fold.
